Molecular target: the molecule itself
Experiment: intact protein mass determination (UHPLC-HRMS); reverse-phase C4 column, water/acetonitrile with 0.1% formic acid, electrospray, QTof; covalent (disulphide) dimer

B1: Noggin (residues 28-232) (natural protein)
chain: MQHYLHIRPAPSDNLPLVDLIEHPDPIFDPKEKDLNETLLRSLLGGHYDPGFMATSPPEDRPGGGGGAAGGAEDLAELDQLLRQRPSGAMPSEIKGLEFSEGLAQGKKQRLSKKLRRKLQMWLWSQTFCPVLYAWNDLGSRFWPRYVKVGSCFSKRSCSVPEGMVCKPSKSVHLTVLRWRCQRRGGQRCGWIPIQYPIISECKCSC
modifications: biotin (biotinylated Noggin in the BLI experiments); methionine oxidation, mainly on the N-terminal methionine, in part of the sample
notes: Noggin, residues 28-232 of UniProt Q13253; Disulphide-linked homodimer; No tag (pET-17(b)); for the crystal, SEC-MALS and cell assays no biotinylation is mentioned; also called antagonist Noggin; recombinant Noggin
- stoichiometry N: 2

From article PMC9929448, “Structural analysis of the interaction between human cytokine BMP-2 and the antagonist Noggin reveals molecular details of cell chondrogenesis inhibition” (The Journal of Biological Chemistry, 2023)
